± gives the uncertainty stated by the source.
Assay: protein stability index of a GFP-peptide fusion (yeast GPS) (PSI 1-4); higher = more stable; sorted into four equal gates, so the index is relative within each strain
Outline: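 Each library plasmid carries Cherry plus GFP with a tiled 17-residue yeast protein peptide fused downstream, and the pooled library was carried in yeast. Mid-log cultures in leucine-free medium were sorted into four equal gates by GFP/Cherry ratio. Reads from Illumina sequencing of PCR-amplified plasmids from each gate were assigned to strains by barcodes. Per peptide, the protein stability index was computed as the summed products of gate read frequency and gate number.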

Sequence | protein stability index (doa10∆) | protein stability index (pdr5∆) | protein stability index (san1∆) | protein stability index (ubr1∆)
FPPNLEKGENPSCVYNL [UBP6] | 2.79 ± 0.1 | 1.7 ± 0.088 | 1.15 ± 0.16 | 1.11 ± 0.064
VYTLACRSCPYEFPIEG [RPC11] | 1.22 ± 0.16 | 1.36 ± 0.15 | – | 1.54 ± 0.17
LALMTAHSLSPKDYIKK [CDC53] | 3.1 ± 0.06 | 3.03 ± 0.059 | 3.25 ± 0.04 | 3.15 ± 0.052
NAKKRVFKTHSYRGVDL [RPS15] | 2.93 ± 0.053 | 2.15 ± 0.033 | 3.16 ± 0.039 | 3.32 ± 0.047
RKRHQRALKVRNAQAQR [RPS6A] | 3.04 ± 0.14 | 2.96 ± 0.1 | 2.73 ± 0.073 | 2.96 ± 0.13
GSIQKGMPHKFYQGKTG [RPL21A] | 3.07 ± 0.14 | 3.06 ± 0.16 | 2.9 ± 0.21 | 2.51 ± 0.28
DFYTRHHFTCEITGTSC [ITC1] | 1.43 ± 0.042 | 1.64 ± 0.045 | 1.51 ± 0.094 | 1.65 ± 0.045
QFAPAFLNTPNNNINEN [SSN2] | 2.92 ± 0.067 | 2.98 ± 0.063 | 2.66 ± 0.068 | 2.89 ± 0.06
LYQSKGRYMEALALYVD [SRP68] | 1.86 ± 0.076 | 1.9 ± 0.14 | 1.9 ± 0.15 | 2 ± 0.11
FKLVSTPSSNSNSSELE [MED1] | 1.85 ± 0.058 | 2.29 ± 0.062 | 2.35 ± 0.057 | 2.84 ± 0.046
KLQENRTLLTEEIEPKL [SMC2] | 2.91 ± 0.2 | 3.29 ± 0.18 | 2.76 ± 0.15 | 3.19 ± 0.14
NIKKKDTKDALSTRELA [RPC53] | – | – | – | 2.7 ± 0.29
SCTLLERGHPKDNARIY [POP1] | 1.87 ± 0.056 | 2.15 ± 0.064 | 2.76 ± 0.055 | 2.99 ± 0.063
IPSSKIDDFTTRLWGSV [SNU114] | 2.93 ± 0.16 | 3.05 ± 0.14 | 3 ± 0.12 | 3.21 ± 0.12
SNDERIVKRLYEYGAVS [BRR2] | 2.71 ± 0.076 | 2.97 ± 0.07 | 3.14 ± 0.056 | 3.14 ± 0.049
SAYEASMVYSNVGELIE [RRP4] | 1.64 ± 0.057 | 2.22 ± 0.054 | 2.32 ± 0.058 | 1.85 ± 0.048
KKPGKIAKPNTANAKHT [SMB1] | 2.87 ± 0.071 | 2.73 ± 0.091 | 2.75 ± 0.089 | 2.85 ± 0.066
ITLALADAGIELVDMAG [MTR3] | 1.89 ± 0.072 | 2.43 ± 0.065 | 2.2 ± 0.1 | 2.12 ± 0.075
LEGETDPLRIAMKELAE [RPO26] | 3.49 ± 0.21 | 3.34 ± 0.057 | 3.27 ± 0.1 | 3.36 ± 0.15
PDLDTECFISMQSTSPA [SWI1] | 2.68 ± 0.18 | 3.02 ± 0.13 | 2.32 ± 0.17 | 2.93 ± 0.07
TKSGATTSEKQEVTNEA [GAL11] | 2.99 ± 0.28 | 3.52 ± 0.19 | 2.9 ± 0.28 | –
SFDFGNENEDEDEGTLN [ARP9] | 3.56 ± 0.14 | 3.38 ± 0.25 | 3.41 ± 0.1 | –
VHKERHDGGFDLVHIKD [RPS4A] | 1.48 ± 0.084 | 1.94 ± 0.069 | 1.61 ± 0.15 | 1.84 ± 0.05
NNSNSNNNDNNNSNTVA [SWI1] | 2.95 ± 0.058 | 3.14 ± 0.051 | 3.04 ± 0.042 | 3.13 ± 0.045
FASNKKINDESSIDKKS [YML103C/NUP188] | 2.5 ± 0.066 | 2.92 ± 0.073 | 2.64 ± 0.068 | 3.14 ± 0.067
DIDLETYSFIDNDRFNV [YML103C/NUP188] | 2.47 ± 0.064 | 2.54 ± 0.056 | 2.46 ± 0.081 | 2.21 ± 0.042
GRRISENGQRDLDRIAA [RPS19A] | 3.76 ± 0.25 | 3.42 ± 0.14 | 3.4 ± 0.064 | 3.45 ± 0.17

Sequence | protein stability index (doa10∆) | protein stability index (pdr5∆) | protein stability index (san1∆) | protein stability index (ubr1∆)
YPIYELLMSCPRLSHLS [GRR1] | 1.42 ± 0.056 | 1.4 ± 0.048 | 1.45 ± 0.14 | 1.39 ± 0.052
NEYRLAFYQVTPEEDEE [RPL22A] | 2.52 ± 0.077 | 2.61 ± 0.071 | 2.75 ± 0.073 | 2.69 ± 0.087
EQLSEEDAKLKTDLELL [RPN1] | 3.13 ± 0.15 | 3.25 ± 0.069 | 3.25 ± 0.1 | 3 ± 0.13
PIDAGLNEAPFPEENII [MCD1] | 3.01 ± 0.069 | 2.88 ± 0.054 | 3.06 ± 0.033 | 2.96 ± 0.041
RRISSMPGGYFHSEISP [YAR002W/NUP60] | 2.27 ± 0.14 | 1.89 ± 0.11 | 2.96 ± 0.094 | 3.17 ± 0.14
IPVKLLNEAQGHIVSLE [SMD3] | 3.14 ± 0.12 | 3.42 ± 0.16 | 2.77 ± 0.093 | 3.08 ± 0.11
EEEQDTGESEESSSEDD [IRR1] | 3.23 ± 0.2 | 3.44 ± 0.23 | 3.35 ± 0.11 | 3.43 ± 0.06
KAAFIRVNGSEFVHKYL [RPT3] | 2.22 ± 0.062 | 2.46 ± 0.073 | 2.15 ± 0.087 | 2.77 ± 0.08
TRSHEYGRKSFRNNKND [REC8] | 3.2 ± 0.11 | 3.16 ± 0.067 | 3.29 ± 0.051 | 3.3 ± 0.067
LASEVGDPALVYKFMSL [ECM29] | 2.32 ± 0.069 | 2.4 ± 0.067 | 2.34 ± 0.093 | 2.05 ± 0.034
NNKILEKCKEINVETVY [BRR2] | 1.73 ± 0.06 | 2 ± 0.062 | 1.78 ± 0.19 | 2.06 ± 0.067
GKMNNEVSTSTSMTGDA [SWI3] | 3.49 ± 0.076 | 3.3 ± 0.069 | 3.2 ± 0.054 | 3.15 ± 0.053
KQREIVKAFLSIFEDAI [NUT1] | 1.92 ± 0.081 | 1.65 ± 0.071 | 2.38 ± 0.19 | 1.76 ± 0.1
FFAAIRFVLSDDYSNLK [SMC3] | 2.27 ± 0.091 | 2.68 ± 0.13 | 2.56 ± 0.1 | 2.7 ± 0.07
NINATNTSVLMKLKLMI [YCS4] | 2.08 ± 0.093 | 1.5 ± 0.079 | 1.48 ± 0.13 | 2.24 ± 0.077
SLFHIVVDTEETATLIM [SMC3] | 2.35 ± 0.15 | 2.17 ± 0.15 | 1.68 ± 0.17 | 2.23 ± 0.098
IVGKKIQEFLVVIEKRR [GRR1] | 3.23 ± 0.098 | 2.9 ± 0.098 | 3.29 ± 0.073 | 3.12 ± 0.055
LTADARSMIEHARTAAV [PUP2] | 2.11 ± 0.13 | 2.87 ± 0.22 | 2.38 ± 0.16 | 2.71 ± 0.084
VRAEELNISGEFFRNKL [RPL16A] | 3.67 ± 0.21 | 3.17 ± 0.23 | 3.07 ± 0.18 | 3.36 ± 0.2
TVKRGAAGIWTCSCCKK [RPL43A] | 1.68 ± 0.085 | 1.74 ± 0.058 | 1.74 ± 0.11 | 1.94 ± 0.062
DKKHFNNKNKRVTGAGG [RPC53] | 3.15 ± 0.24 | 2.53 ± 0.17 | 3.16 ± 0.27 | 3.31 ± 0.075
NSTNSNTTKPAFGGLNF [YJL041W/NSP1] | 3.29 ± 0.082 | 3.29 ± 0.09 | 3.14 ± 0.059 | 3.47 ± 0.076
LRLTEQKSPKIRDPLTQ [RPC82] | 1.6 ± 0.071 | 1.66 ± 0.041 | 1.91 ± 0.12 | 1.92 ± 0.045
QLIFRQQTGLVDAITRC [SNU114] | 2.97 ± 0.087 | 2.69 ± 0.058 | 3.04 ± 0.052 | 2.47 ± 0.041
ETTTEEDSENPSDWQRN [ITC1] | 3.31 ± 0.17 | 3.31 ± 0.095 | 3.06 ± 0.11 | 3.38 ± 0.083
TNNEQLQQELATTQDQV [NUT2] | 3.06 ± 0.048 | 3.25 ± 0.062 | 3.11 ± 0.039 | 3.19 ± 0.038
ISNVIKPNQTIMVLDAS [SRP54] | 2.48 ± 0.062 | 2.56 ± 0.053 | 2.83 ± 0.06 | 2.67 ± 0.059

— the supplement of paper PMC9732359
